Assay [1] addresses T1, Human RNF43 Extracellular Domain (ECD) (amino acids 24-197) (human, UniProt Q68DV7 24-197, site-specifically biotinylated by BirA ligase at the C-terminal biotin-acceptor peptide).
T1 construct: range 24-197; The methods say that RNF43 means the ECD only; also called RNF43 ECD; biotinylated RNF43
T1 sequence: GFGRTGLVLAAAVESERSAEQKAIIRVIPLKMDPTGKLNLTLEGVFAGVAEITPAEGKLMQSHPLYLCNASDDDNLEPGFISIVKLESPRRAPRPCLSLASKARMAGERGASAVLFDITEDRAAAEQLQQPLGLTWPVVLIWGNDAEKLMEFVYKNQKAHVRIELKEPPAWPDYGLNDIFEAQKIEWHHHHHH
Kind of assay: yeast surface display titration: scFv-displaying yeast with increasing RNF43, flow cytometry, normalized MFI. The procedure: (§1) Plasmids from the final round of selection were isolated using the Zymoprep Yeast Plasmid Miniprep Kit (Zymo Research) and sequenced. These plasmids were electroporated into S. cerevisiae EBY100 yeast and recovered in SDCAA selection media, followed by induction in SGCAA induction media. The individual scFv-transformed yeast were incubated with increasing concentration of biotinylated RNF43/ZNRF3. These yeast were stained with SA-647 and Myc-488 and fluorescence was monitored by flow cytometry. The data were analyzed by GraphPad Prism 7 and the highest affinity clones were identified for subsequent experiments.
A general note: A flow cytometer gives signals particle by particle.

Assay [2] deals with T2, Human ZNRF3 ECD (amino acids 56-219) (human, UniProt Q9ULT6 56-219, site-specifically biotinylated by BirA ligase at the C-terminal biotin-acceptor peptide).
T2 construct: range 56-219; The methods say that ZNRF3 means the ECD only; also called ZNR3 ECD; biotinylated ZNRF3
T2 sequence: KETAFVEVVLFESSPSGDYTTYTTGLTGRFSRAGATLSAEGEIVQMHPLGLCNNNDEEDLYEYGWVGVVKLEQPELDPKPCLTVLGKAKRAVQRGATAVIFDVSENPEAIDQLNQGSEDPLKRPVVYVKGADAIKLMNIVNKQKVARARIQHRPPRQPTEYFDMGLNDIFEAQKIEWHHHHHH
Nature of the assay: yeast surface display titration: scFv-displaying yeast with increasing ZNRF3, flow cytometry, normalized MFI. The procedure:
as §1

B1: R5 scFv (scFv)
scFv: ASQITLKESGPTLVKPTQTLTLTCSFSGFSLSFSGVGVAWIRQPPGKALEWLALIYWDDDKRYSPSLKSRLTITKDTSKNQVVLTMTNMDPLDTATYYCAHREWKAFGAFDIWGQGTMVTVSSGILGSGGGGSGGGGSGGGGSQPVLTQSPSASGTPGQRVTISCSGSSSNIGSNTVNWYQQLPGTAPKLLIYSNNQRPSGVPDRFSGSKSVTSASLAISGLQSEDEAEYYCATWDDSLNGAVFGGGTQLTVLSGILG
Molecule B1 showed an EC50 in assay [1] of 122 nM.

B2: Z6 scFv (scFv)
scFv: ASQVQLVQSGAEVKNPGASVKVSCKASGYAFTSYGISWVRQAPGQGLEWMGWISAYTRNTNYAQKFQGRVTLTTDTSTSTAYMELRSLRSDDTAIYYCARDARYSLGVGAFDVWGQGTMVTVSSGILGSGGGGSGGGGSGGGGSETTLTQSPAFMSATPGDKVSISCKASRDIDDDLNWYQQKPGEAAISIIQEATTLVPGIPPRFSGSGYGTDFTLTINNIESEDAAYYFCLQHDDVPYTFGQGTKLEIKSGIL
In turn, B2 had an EC50 in assay [2] of 113 nM.

The term EC50 denotes the concentration at which the effect is half-maximal. Read a high EC50 as a less potent agent.
